# Results as given in patent publication US20160152686A1.
# Experiments:
# [1] = biological target: human serum albumin (human) (UniProt P02768); test: SPR, affinity to HSA
# [2] = biological target: VEGFR2 as engaged in the VEGF hBa/F3 proliferation assay; test: cell-based or functional assay
# Chain of human serum albumin (human) (P02768 25-609): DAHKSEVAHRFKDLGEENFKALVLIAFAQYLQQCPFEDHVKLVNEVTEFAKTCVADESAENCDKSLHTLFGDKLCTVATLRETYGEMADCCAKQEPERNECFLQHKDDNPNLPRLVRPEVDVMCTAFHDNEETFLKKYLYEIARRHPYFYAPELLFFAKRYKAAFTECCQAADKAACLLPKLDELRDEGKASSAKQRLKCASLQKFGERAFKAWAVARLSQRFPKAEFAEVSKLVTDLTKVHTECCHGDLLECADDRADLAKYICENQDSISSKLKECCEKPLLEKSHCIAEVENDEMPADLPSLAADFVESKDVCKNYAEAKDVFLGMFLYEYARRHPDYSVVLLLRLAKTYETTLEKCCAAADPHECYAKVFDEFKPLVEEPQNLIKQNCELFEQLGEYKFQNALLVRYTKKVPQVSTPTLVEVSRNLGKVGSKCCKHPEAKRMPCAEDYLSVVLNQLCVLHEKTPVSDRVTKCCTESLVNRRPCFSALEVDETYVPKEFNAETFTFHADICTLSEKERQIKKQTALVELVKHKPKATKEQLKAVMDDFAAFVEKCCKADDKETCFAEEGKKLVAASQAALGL
Kd [1] [nM],"IC50, VEGF hBa/F3 proliferation assay [2]","IC50, VEGF hBa/F3 proliferation assay, with HSA [2]","Rel Pot (C7FL), VEGF hBa/F3 proliferation assay [2]","Rel Pot (C7FL), VEGF hBa/F3 proliferation assay, with HSA [2]",Substance
1.6 to 2.6,–,–,–,–,ABD (alone; column 'ABD' of Table 6)
–,7.53,8.85,0.62,0.53,CT-322 (C7FL lacking the 8 N-terminal amino acids and linked to PEG) (designed binder)
